This is an account of results in patent US20160115235A1 (ARES TRADING S A, published 2016).

In experiment [1] the target is T1, human CXCR5 (human, UniProt P32302 1-372).
T1 sequence: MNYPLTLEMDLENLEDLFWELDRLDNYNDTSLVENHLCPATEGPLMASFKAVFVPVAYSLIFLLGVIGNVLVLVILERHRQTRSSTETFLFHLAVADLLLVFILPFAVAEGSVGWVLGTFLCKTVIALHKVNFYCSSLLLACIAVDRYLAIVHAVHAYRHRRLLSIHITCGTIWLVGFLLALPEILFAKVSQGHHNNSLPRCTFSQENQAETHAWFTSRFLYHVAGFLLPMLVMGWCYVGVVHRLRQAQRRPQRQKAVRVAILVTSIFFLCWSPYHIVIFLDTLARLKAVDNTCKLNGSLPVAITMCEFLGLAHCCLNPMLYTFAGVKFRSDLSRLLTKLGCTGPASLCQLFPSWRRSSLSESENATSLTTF
The experiment is described as follows: cell-based or functional assay.

The target of experiment [2] is T2, mouse CXCR5 (mouse, UniProt Q04683 1-374).
T2 construct: whole, on cells
T2 sequence (looked up): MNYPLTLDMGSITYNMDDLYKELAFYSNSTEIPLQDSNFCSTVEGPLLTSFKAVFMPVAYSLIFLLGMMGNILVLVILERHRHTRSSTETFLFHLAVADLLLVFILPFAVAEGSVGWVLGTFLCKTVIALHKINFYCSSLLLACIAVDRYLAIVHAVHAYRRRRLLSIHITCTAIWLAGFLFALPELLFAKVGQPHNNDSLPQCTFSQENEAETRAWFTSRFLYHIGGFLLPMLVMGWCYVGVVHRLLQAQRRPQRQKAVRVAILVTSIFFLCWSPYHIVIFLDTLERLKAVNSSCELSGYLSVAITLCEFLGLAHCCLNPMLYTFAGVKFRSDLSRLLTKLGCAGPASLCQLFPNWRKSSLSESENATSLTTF
The experiment can be described thus: FACS on cells expressing species orthologues. As to the method: (§1) Binding of anti-CXCR5 antibodies to cell lines and primary cells expressing human CXCR5 or species orthologues was assessed by FACS. Briefly, approximately 1×10⁵ CXCR5 expressing cells were suspended in FACS buffer (PBS containing 1% FBS and 0.02% sodium azide) containing increasing concentrations of anti-CXCR5 antibodies ranging from 0-100 μg/ml, and incubated for 20 min at 4° C. Cells were washed and then resuspended in FACS buffer containing PE-labelled goat anti-human IgG (Jackson labs) for 20 min at 4° C. Cells were then washed 3 times and resuspended in 100 μl FACS buffer and analysed on a FACScalibur instrument (BD Sciences). MFI was plotted against antibody concentration and Graph pad prism software was used to calculate EC₅₀ values.

The target in experiment [3] is T3, rat CXCR5 (rat, UniProt P34997 1-374).
T3 construct: whole, on cells
T3 sequence (looked up): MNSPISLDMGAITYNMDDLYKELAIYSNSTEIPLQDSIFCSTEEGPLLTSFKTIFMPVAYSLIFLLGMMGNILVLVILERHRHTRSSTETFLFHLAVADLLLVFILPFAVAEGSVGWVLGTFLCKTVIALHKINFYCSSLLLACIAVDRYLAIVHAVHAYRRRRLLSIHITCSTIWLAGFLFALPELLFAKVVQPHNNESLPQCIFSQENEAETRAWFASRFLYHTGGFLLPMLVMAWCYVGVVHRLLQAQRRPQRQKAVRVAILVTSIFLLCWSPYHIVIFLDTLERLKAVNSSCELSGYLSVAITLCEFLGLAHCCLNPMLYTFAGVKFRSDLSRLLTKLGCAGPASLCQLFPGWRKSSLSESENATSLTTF
The experiment is described as follows: FACS on cells expressing species orthologues. As to the method:
as §1

For experiment [4], the target named is T4, cynomolgus monkey (Macaca fascicularis) CXCR5 (cynomolgus monkey (Macaca fascicularis), UniProt P32302 1-372 (human entry)).
T4 construct: Full length, on stably transfected cells (CHO, L1.2) or native on cynomolgus B cells in whole blood; also called cCXCR5
T4 chain: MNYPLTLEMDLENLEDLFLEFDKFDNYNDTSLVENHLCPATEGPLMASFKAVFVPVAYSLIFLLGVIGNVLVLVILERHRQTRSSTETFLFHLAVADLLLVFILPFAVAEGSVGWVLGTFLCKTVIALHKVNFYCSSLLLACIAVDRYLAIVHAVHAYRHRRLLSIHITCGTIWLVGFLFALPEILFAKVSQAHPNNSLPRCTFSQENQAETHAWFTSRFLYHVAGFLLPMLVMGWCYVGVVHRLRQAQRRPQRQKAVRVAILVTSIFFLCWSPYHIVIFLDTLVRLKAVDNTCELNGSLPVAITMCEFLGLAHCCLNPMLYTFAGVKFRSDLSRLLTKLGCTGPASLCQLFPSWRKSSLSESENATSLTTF
The experiment can be described thus: FACS on CXCR5 expressing cells. As to the method: as §1

Experiment [5] concerns the target T1, human CXCR5. The experiment can be described thus: cell-based or functional assay. This is another data set of the same source.
For experiment [6], the target named is T1, human CXCR5. The experiment can be described thus: cell-based or functional assay. This is another data set of the same source.

B1: mAb 80A11 (antibody, V domains shown)
VH: EVQLLESGGGLVQPGGSLRLSCAASGFTFSRYPMGWVRQAPGKGLEWVSSISPSGGMTRYADSVKGRFTISRDNSKNTLYLQMNSLRAEDTAVYYCARLKFTSGRTFDIWGQGTMVTVSS
VL: DIQMTQSPATLSLSPGERATLSCRASQSVSSYLAWYQQKPGQAPRLLIYGASSRVPGVPDRFTGSGSETDFTLTITRLEPEDFAVYYCQLSSSSPSWTFGQGTRLEIK
Take B1: in experiment [1], the “Mean IC50 (nM) on L1.2/human CXCR5 cells (chemotaxis)” value (“Mean IC50 (nM)” for short) was found to be 1.85 nM. The binding result in experiment [2] and in experiment [3] was “no binding” in each case.

B2: mAb 80B09 (antibody, V domains shown)
VH: EVQLLESGGGLVQPGGSLRLSCAASGFTFSKYNMLWVRQAPGKGLEWVSVISPSGGRTSYADSVKGRFTISRDNSKNTLYLQMNSLRAEDTAVYYCARHTSITMFDYWGQGTLVTVSS
VL: QSALTQPASVSGSPGQSITISCTGTSSDIGSYNYVSWYQQHPGRAPKVMIYDVTYRPSGVSNRFSGSKSGNTASLTISGLQAEDEADYYCGSYRKSSLYVFGTGTKVTVL
Turning to B2, the “Mean IC50 (nM)” value in experiment [1] worked out at 251 nM. For the same molecule, the binding result in experiment [2] and in experiment [3] was “no binding” throughout.

B3: mAb 42F03 (antibody, human IgG1, V domains shown)
VH: EVQLLESGGGLVQPGGSLRLSCAASGFTFSWYPMTWVRQAPGKGLEWVSYIRSSGGFTKYADSVKGRFTISRDNSKNTLYLQMNSLRAEDTAVYYCARGLYRWGQGTLVTVSS
VL: IQMTQSPGTLSLSPGERATLSCRASQSVSNNYLAWYQQKPGQAPRLLISGASRRATDIADRFSGSGSGTDFTLTISRLEPEDFAVYYCQQYDSFPLTFGGGTKVEIK
As for B3, the “Mean IC50 (nM)” value in experiment [1] is 1.86 nM. Also, the binding result in experiment [2] and in experiment [3] was “no binding” each time.

B4: mAb 80A10 (antibody, V domains shown)
VH: EVQLLESGGGLVQPGGSLRLSCAASGFTFSMYVMKWVRQAPGKGLEWVSGIRSSGGDTSYADSVKGRFTISRDNSKNTLYLQMNSLRAEDTAVYYCARQSRYCNGGSCYSRAFDIWGQGTMVTVSS
VL: QPPSASGTPGQRVTISCFGSNSNIGSTYAYWYQQVPGTAPKLLIYRNNQRPSGVPDRFSGSKSGTSASLAISGLRSEDEADYYCAAWDVNLSGHWVFGGGTKLTVLG
On to B4, for which, in experiment [1], the “Mean IC50 (nM)” value is 4.7 nM. For the same molecule, the binding result in experiment [2] and in experiment [3] was “no binding” each time.

B5: mAb 12A01 (antibody, V domains shown)
VH: EVQLLESGGGLVQPGGSLRLSCAASGFTFSRYVMVWVRQAPGKGLDWVSGISPSGGVTRYADSVKGRFTISRDNSKNTLYLQMNSLRAEDTAMYYCARIRKEMTTISYFFDYWGQGTLVTVSS
VL: DIQMTQSPDSLSASVGDRVTITCRASQGVDIYVAWYQQKPGKVPKLLMHSASTLASGVPSRFSGRGSGTDFTLTINSLQAEDVATYYCQSHNSAVVTFGQGTRLEIK
In the case of B5, the binding result in experiment [4] is “binds”; in experiment [2], “no binding”; in experiment [3], “no binding”. Further, in experiment [1], the “Mean IC50 (nM)” value worked out at 2200 nM.

B6: mAb 40C01 (antibody, V domains shown)
VH: EVQLLESGGGLVQPGGSLRLSCAASGFTFSRYVMVWVRQAPGKGLDWVSGISPSGGVTRYADSVKGRFTISRDNSKNTLYLQMNSLRAEDTAMYYCARIRKEMTTISYFFDYWGQGTLVTVSS
VL: DIQMTRAPDSLSASVGDRVTITCRASQGVDIYVAWYQQKPGKAPKLLMHSASTLASGVPSRFSGRGSGTDFTLTINSLQAEDVATYYCQSHNSAVVTFGQGTRLEIK
notes: also called 40C01 VH-VL; 40C01 parental molecule
Regarding B6, the binding result in experiment [4] was “binds”; in experiment [2], “no binding”; in experiment [3] it was “no binding”. In addition, in experiment [1], the “Mean IC50 (nM)” value worked out at 5.6 nM.

B7: recombinant Fab fragment of 40C01-VH1-Vk3 (Fab, V domains shown)
VH: EVQLLESGGGLVQPGGSLRLSCAASGFTFSRYVMVWVRQAPGKGLEWVSGISPSGGVTRYAASVKGRFTISRDNSKNTLYLQMNSLRAEDTAVYYCARIRKEMTTISYFFDYWGQGTLVTVSS
VL: DIQMTQSPSSLSASVGDRVTITCRASQGVDAYVAWYQQKPGKVPKLLIYSTSTLASGVPSRFSGSGSGTDFTLTISSLQPEDVATYYCQSHNAAVVTFGQGTRLEIK
For B7, the “IC50, inhibition of human CXCR5-L1.2 cell chemotaxis” value in experiment [5] was 288 nM.

B8: recombinant Fab fragment of 40C01-VH2-Vk3 (Fab, V domains shown)
VH: EVQLLESGGGLVQPGGSLRLSCAASGFTFSRSVMVWVRQAPGKGLEWVSGISPSGGVTRYAASVKGRFTISRDNSKNTLYLQMNSLRAEDTAVYYCARIRKEKTTISYFFDYWGQGTLVTVSS
VL: DIQMTQSPSSLSASVGDRVTITCRASQGVDAYVAWYQQKPGKVPKLLIYSTSTLASGVPSRFSGSGSGTDFTLTISSLQPEDVATYYCQSHNAAVVTFGQGTRLEIK
With B8, the “IC50, inhibition of human CXCR5-L1.2 cell chemotaxis” value in experiment [5] is 20.9 nM.

B9: anti-CXCR5 40C01-VH1-Vk3 as IgG4 (antibody)
heavy: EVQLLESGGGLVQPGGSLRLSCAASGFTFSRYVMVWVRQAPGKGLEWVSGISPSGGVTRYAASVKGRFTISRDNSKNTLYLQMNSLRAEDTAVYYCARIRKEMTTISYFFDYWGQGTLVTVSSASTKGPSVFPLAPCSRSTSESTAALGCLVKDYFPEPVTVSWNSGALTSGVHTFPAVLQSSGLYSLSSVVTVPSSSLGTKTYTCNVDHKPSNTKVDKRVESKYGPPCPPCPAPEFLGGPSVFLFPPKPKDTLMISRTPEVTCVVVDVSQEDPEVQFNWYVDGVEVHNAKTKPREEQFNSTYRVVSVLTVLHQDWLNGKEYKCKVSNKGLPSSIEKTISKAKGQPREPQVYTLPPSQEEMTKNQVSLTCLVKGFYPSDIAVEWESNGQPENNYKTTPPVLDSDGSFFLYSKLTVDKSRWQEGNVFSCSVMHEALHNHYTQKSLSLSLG
light: DIQMTQSPSSLSASVGDRVTITCRASQGVDAYVAWYQQKPGKVPKLLIYSTSTLASGVPSRFSGSGSGTDFTLTISSLQPEDVATYYCQSHNAAVVTFGQGTRLEIKRTVAAPSVFIFPPSDEQLKSGTASVVCLLNNFYPREAKVQWKVDNALQSGNSQESVTEQDSKDSTYSLSSTLTLSKADYEKHKVYACEVTHQGLSSPVTKSFNRGEC
For the molecule B9, the “efficacy of inhibition of CXCL13-stimulated L1.2-CXCR5 chemotaxis” value in experiment [5] stood at 100%. In addition, the “IC50, inhibition of CXCL13-induced L1.2-CXCR5 chemotaxis” value in experiment [6] was 2.1 nM.

B10: anti-CXCR5 40C01-VH2-Vk3 as IgG4 (antibody)
heavy: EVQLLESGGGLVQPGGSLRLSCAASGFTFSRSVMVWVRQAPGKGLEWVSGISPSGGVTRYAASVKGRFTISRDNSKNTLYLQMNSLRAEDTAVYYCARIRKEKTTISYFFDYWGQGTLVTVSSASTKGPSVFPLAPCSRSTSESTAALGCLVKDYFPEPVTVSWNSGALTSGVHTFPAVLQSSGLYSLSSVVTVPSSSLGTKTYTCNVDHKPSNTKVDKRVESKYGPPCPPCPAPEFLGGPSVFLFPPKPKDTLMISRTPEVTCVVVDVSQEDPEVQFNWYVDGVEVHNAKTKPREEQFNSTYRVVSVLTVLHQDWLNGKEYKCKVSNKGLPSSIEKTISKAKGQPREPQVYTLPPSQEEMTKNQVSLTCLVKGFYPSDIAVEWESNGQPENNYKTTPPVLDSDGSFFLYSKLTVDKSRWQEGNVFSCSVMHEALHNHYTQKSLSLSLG
light: DIQMTQSPSSLSASVGDRVTITCRASQGVDAYVAWYQQKPGKVPKLLIYSTSTLASGVPSRFSGSGSGTDFTLTISSLQPEDVATYYCQSHNAAVVTFGQGTRLEIKRTVAAPSVFIFPPSDEQLKSGTASVVCLLNNFYPREAKVQWKVDNALQSGNSQESVTEQDSKDSTYSLSSTLTLSKADYEKHKVYACEVTHQGLSSPVTKSFNRGEC
In the case of B10, in experiment [5], the “efficacy of inhibition of CXCL13-stimulated L1.2-CXCR5 chemotaxis” value worked out at 100%. For the same molecule, in experiment [6], the “IC50, inhibition of CXCL13-induced L1.2-CXCR5 chemotaxis” value was 0.103 nM.

B11: mAb 80D11 (antibody, V domains shown)
VH: EVQLLESGGGLVQPGGSLRLSCAASGFTFSHYWMQWVRQAPGKGLEWVSSISSSGGKTRYADSVKGRFTISRDNSKNTLYLQMNSLRAEDTAVYYCATAGYSSGWGQGTLVTVSS
VL: QSALTQPASVSGSPGQSITISCTGTSSDVGGYNYLSWYQQHPGKAPKLMIYGVSNRPSGVSTRFSGSKSGNTASLTISGLQAEDEADYYCSSYTSTGTRVFGGGTRLTVL
As for B11, the figures for the binding result in experiment [4], in experiment [2] and in experiment [3] were “binds”, “no binding” and “no binding”, respectively. For the same molecule, the “Mean IC50 (nM)” value in experiment [1] amounted to 37 nM.
